Assay results from publication PMC12354898, “Collagen VI microfibril structure reveals mechanism for molecular assembly and clustering of inherited pathogenic mutations” (Nature Communications, 2025).

Biological target: T1, mini-collagen VI α1 chain, ColVIα1^C1C2 (human, UniProt P12109 566-1028)
T1 construct: human collagen VI α1 chain, UniProt P12109 aa 566-1028: nine Gly-X-Y triplets, coiled coil region, C1 and C2 vWA domains; Synthetic gene cloned into pHLSec with AgeI and XhoI; one chain of the disulphide-bonded heterotrimer α1α2α3^C1C2; also called α1 chain of α1α2α3^C1C2; source: Expi293F, co-transfected with the other two chains, secreted; in conditioned media, and purified (Strep-Tactin XT, …)
T1 sequence (looked up): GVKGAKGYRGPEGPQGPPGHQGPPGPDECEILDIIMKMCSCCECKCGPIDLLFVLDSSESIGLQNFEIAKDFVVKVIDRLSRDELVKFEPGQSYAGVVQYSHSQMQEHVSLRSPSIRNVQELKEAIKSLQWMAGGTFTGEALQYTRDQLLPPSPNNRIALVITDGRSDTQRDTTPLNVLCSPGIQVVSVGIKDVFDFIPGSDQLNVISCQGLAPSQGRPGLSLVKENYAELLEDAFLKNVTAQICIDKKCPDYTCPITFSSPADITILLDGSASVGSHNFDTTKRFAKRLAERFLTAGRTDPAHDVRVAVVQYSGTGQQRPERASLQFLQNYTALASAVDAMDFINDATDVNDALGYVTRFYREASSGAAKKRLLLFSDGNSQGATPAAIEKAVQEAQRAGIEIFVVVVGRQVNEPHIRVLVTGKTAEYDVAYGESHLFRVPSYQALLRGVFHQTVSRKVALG
Experiment: pull-down; three chains co-expressed in Expi293F; sequential affinity steps from conditioned media (Strep-Tactin XT for Twin-Strep α2, Ni-Sepharose for His α1, anti-FLAG M2 for α3; Fig. 5f: Twin-strep then His-tag); eluates on reduced and non-reduced SDS-PAGE
Details: partners not purified

binding result: binds
B1: mini-collagen VI α2 chain, ColVIα2^C1C2 (domain or fragment, human, UniProt P12110 564-1019, looked up)
chain: GEPGPRGPRGVPGPEGEPGPPGDPGLTECDVMTYVRETCGCCDCEKRCGALDVVFVIDSSESIGYTNFTLEKNFVINVVNRLGAIAKDPKSETGTRVGVVQYSHEGTFEAIQLDDERIDSLSSFKEAVKNLEWIAGGTWTPSALKFAYDRLIKESRRQKTRVFAVVITDGRHDPRDDDLNLRALCDRDVTVTAIGIGDMFHEKHESENLYSIACDKPQQVRNMTLFSDLVAEKFIDDMEDVLCPDPQIVCPDLPCQTELSVAQCTQRPVDIVFLLDGSERLGEQNFHKARRFVEQVARRLTLARRDDDPLNARVALLQFGGPGEQQVAFPLSHNLTAIHEALETTQYLNSFSHVGAGVVHAINAIVRSPRGGARRHAELSFVFLTDGVTGNDSLHESAHSMRKQNVVPTVLALGSDVDMDVLTTLSLGDRAAVFHEKDYDSLAQPGFFDRFIRWIC
notes: human collagen VI α2 chain, UniProt P12110 aa 564-1019: nine Gly-X-Y triplets, coiled coil region, C1 and C2 vWA domains; Synthetic gene cloned into pHLSec with AgeI and XhoI; density for two N-linked glycans on this chain in the cryoEM map; also called α2 chain of α1α2α3^C1C2; source: Expi293F, co-transfected with the other two chains, secreted; in conditioned media, and purified (Strep-Tactin …)
